We go through 2 molecules from article PMC5748844 (The Journal of Experimental Medicine, 2018).

Test [1] addresses soluble RAGE (receptor for advanced glycation end products) (UniProt Q15109). Put plainly: SPR. On the technique in general: In SPR one partner is held on a chip, and binding of the other changes the refractive index at the surface.
Target sequence in this assay (Q15109 23-342): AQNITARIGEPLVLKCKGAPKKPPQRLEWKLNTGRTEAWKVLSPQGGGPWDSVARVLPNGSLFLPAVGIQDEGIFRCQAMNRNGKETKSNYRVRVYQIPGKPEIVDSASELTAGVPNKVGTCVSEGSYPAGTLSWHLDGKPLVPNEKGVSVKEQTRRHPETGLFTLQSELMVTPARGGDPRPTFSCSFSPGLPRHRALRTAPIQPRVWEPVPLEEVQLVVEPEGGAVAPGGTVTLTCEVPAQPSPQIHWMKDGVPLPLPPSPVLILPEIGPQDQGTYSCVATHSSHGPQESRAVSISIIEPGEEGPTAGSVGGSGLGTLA
The target is the same in test [2]. The experiment in a line: SPR. The source holds these as a separate data set.
Target sequence in this assay (Q15109 23-342): as above

Like-named read-outs stand apart in the source and are kept apart here.

The term Kd denotes the concentration at which binding is half-saturated. Lower therefore signals a tighter complex. “nonoxidizable HMGB1 mutant 3S (from UniProt P63159 1-215) (natural protein)” gave a Kd in test [1] of 3.5 µM. That is a single-digit micromolar value.

B1: fully reduced HMGB1 (High Mobility Group Box 1) (natural protein)
chain: MGKGDPKKPRGKMSSYAFFVQTCREEHKKKHPDASVNFSEFSKKCSERWKTMSAKEKGKFEDMAKADKARYEREMKTYIPPKGETKKKFKDPNAPKRPPSAFFLFCSEYRPKIKGEHPGLSIGDVAKKLGEMWNNTAADDKQPYEKKAAKLKEKYEKDIAAYRAKGKPDAAKKGVVKAEKSKKKKEEEDDEEDEEDEEEEEEEEDEDEEEDDDDE
modifications: all cysteines reduced
B1 came in with a Kd in test [2] of 3.5 µM.
